From patent US9655377, “Methods of controlling fructan synthesis in plants” (COMMONWEALTH SCIENTIFIC AND INDUSTRIAL RESEARCH ORGANISATION)

Experiments:
[1] = target: T1, TaMYB13-1 (correctly spliced form) (Triticum aestivum); experiment: CELD reporter plate assay, 25 mM HEPES pH 7.0, 50 mM KCl; self-competition at 2.5x reduced binding about 60%; conditions: tags: C-terminal 6xHis-tagged CELD cellulase reporter fusion; label: biotin
T1 chain: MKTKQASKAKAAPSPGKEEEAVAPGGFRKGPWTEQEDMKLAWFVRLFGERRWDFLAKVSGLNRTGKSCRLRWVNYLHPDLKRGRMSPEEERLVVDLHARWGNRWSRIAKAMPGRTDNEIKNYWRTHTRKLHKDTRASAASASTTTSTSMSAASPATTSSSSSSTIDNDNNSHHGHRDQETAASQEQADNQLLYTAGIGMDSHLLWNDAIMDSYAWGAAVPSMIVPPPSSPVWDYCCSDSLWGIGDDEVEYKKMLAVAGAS
Method: (§1) The DNA-binding activity of TaMYB13-CELD was measured as described previously (Xue, 2002a) using streptavidin-coated 96-well plate and binding/washing buffer (25 mM HEPES/KOH, pH 7.0, 50 mM KCl, 0.2 mM EDTA and 0.5 mM DTT) containing 0.15 µg µl^-1 shared herring sperm DNA, 0.3 mg ml^-1 bovine, serum albumin, 10% glycerol and 0.025% Nonidet P-40. 40,000 fluorescent units h^-1 of the CELD activity of TaMYB13-CELD protein and 2 pmol of biotinylated probes were used per assay. […]
(§2) Binding site competition assays were as described by Xue (2002). […] Relative TaMYB13 binding activity was expressed as fluorescence units (FU) of methylumbelliferyl group generated from MUC hydrolysis by TaMYB13-CELD that bound to an immobilised biotin-labelled probe after 3-h incubation of cellulase assay.
(§3) To further analyse the relative binding affinity of the previously reported plant R2R3 MYB protein sites in relation to the preferred TaMYB13-binding site, a binding site competition analysis was performed. Relative TaMYB13 binding activity to three biotin-labelled probes (SynO2m14, MYB.Ph3-II and MRE2) was assessed in combination with or without one of the four unlabelled competitors in a 2.5-fold amount: SynO2m14, MYB.Ph3-II, MRE2 and AC-I. The addition of a 2.5-fold amount of unlabelled SynO2m14 to biotin-labelled SynO2m14 reduced the TaMYB13 binding activity by about 60%. […]

[2] = target: T1, TaMYB13-1 (correctly spliced form); experiment: relative to SynO2m14; conditions: tags: C-terminal 6xHis-tagged CELD cellulase reporter fusion; label: biotin
[3] = target: T1, TaMYB13-1 (correctly spliced form); experiment: CELD reporter assay; positive control; conditions: tags: C-terminal 6xHis-tagged CELD cellulase reporter fusion; label: biotin
Method: (§4) The DNA-binding activity of TaMYB13-CELD was measured as described previously (Xue, 2002a) using streptavidin-coated 96-well plate and binding/washing buffer (25 mM HEPES/KOH, pH 7.0, 50 mM KCl, 0.2 mM EDTA and 0.5 mM DTT) containing 0.15 µg µl^-1 shared herring sperm DNA, 0.3 mg ml^-1 bovine, serum albumin, 10% glycerol and 0.025% Nonidet P-40. 40,000 fluorescent units h^-1 of the CELD activity of TaMYB13-CELD protein and 2 pmol of biotinylated probes were used per assay. The cellulase activity of TaMYB13-CELD proteins bound to immobilised biotinylated probes was assayed by incubation in 100 μl of the CELD substrate solution [1 mM methylumbelliferyl β-D-cellobioside (MUC) in 50 mM Na-citrate buffer, pH 6.0] at 40° C. for 3 h. A biotin-labelled double-stranded oligonucleotide without a TaMYB13 binding site was used as a control of background activity.

[4] = target: T1, TaMYB13-1 (correctly spliced form); experiment: background control; conditions: tags: C-terminal 6xHis-tagged CELD cellulase reporter fusion; label: biotin
Method: as §4

[5] = target: T1, TaMYB13-1 (correctly spliced form); experiment: higher affinity than S3; assayed oligonucleotide may be longer; conditions: tags: C-terminal 6xHis-tagged CELD cellulase reporter fusion
Method: as §4

[6] = target: T1, TaMYB13-1 (correctly spliced form); experiment: higher affinity than Ta1-SST S1; assayed oligonucleotide may be longer; conditions: tags: C-terminal 6xHis-tagged CELD cellulase reporter fusion
Method: as §4

[7] = target: T1, TaMYB13-1 (correctly spliced form); experiment: assayed oligonucleotide may be longer; conditions: tags: C-terminal 6xHis-tagged CELD cellulase reporter fusion
[8] = target: T1, TaMYB13-1 (correctly spliced form); experiment: no or negligible activity, relative to SynO2m14; conditions: tags: C-terminal 6xHis-tagged CELD cellulase reporter fusion; label: biotin
[9] = target: T1, TaMYB13-1 (correctly spliced form); experiment: no or negligible activity; did not compete with SynO2m14; conditions: tags: C-terminal 6xHis-tagged CELD cellulase reporter fusion; label: biotin
Method: as §1, §2, §3

[10] = target: T1, TaMYB13-1 (correctly spliced form); experiment: no or negligible activity; conditions: tags: C-terminal 6xHis-tagged CELD cellulase reporter fusion; label: biotin

B1: SynO2m14 (dsDNA)
DNA 1: TCGAGGGAATAAAGTTAGGTAAGATGT
DNA 2: ACATCTTACCTAACTTTATTCCCTCGA
B1: binds [1].

B2: AC-III (dsDNA)
DNA 1: TCGAGGGAATAAAGTTAGGTTATGATGT
DNA 2: ACATCATAACCTAACTTTATTCCCTCGA
B2: binds [2].

B3: SynO2 (dsDNA)
DNA 1: TCGACCGAATAAAGTTTGGTATGATGT
DNA 2: ACATCATACCAAACTTTATTCGGTCGA
B3: binds [3].

B4: control without TaMYB13 site (dsDNA)
DNA 1: GAGAATTTGCCGTTTATCTAGAAATTACCT
DNA 2: AGGTAATTTCTAGATAAACGGCAAATTCTC
B4: no binding [4].

B5: Ta6-SFT1 S1 site (dsDNA)
DNA 1: TGTTAGGTTCGGTT
DNA 2: AACCGAACCTAACA
B5: binds [5].

B6: Ta1-SST S2 site (dsDNA)
DNA 1: ATGTTCGGTAA
DNA 2: TTACCGAACAT
B6: binds [6].

B7: Hv6-SFT S1 site (dsDNA)
DNA 1: TATGTTAGGTAC
DNA 2: GTACCTAACATA
B7: binds [7].

B8: MYB.Ph3-I (dsDNA)
DNA 1: TCGAGGGAATAAAAACGGTTATGATGT
DNA 2: ACATCATAACCGTTTTTATTCCCTCGA
B8: no binding [8].

B9: AC-I (rev-comp) (dsDNA)
DNA 1: TCGAGGGAATAAGGTAGGTGGATGATGT
DNA 2: ACATCATCCACCTACCTTATTCCCTCGA
B9: no binding [9].

B10: MRE (rev-comp) (dsDNA)
DNA 1: TCGAGGGAATAATTTTTGGTTTGATGT
DNA 2: ACATCAAACCAAAAATTATTCCCTCGA
B10: no binding [10].
